Assays:
[1] = target: T1, TIM3_rd3.22 HE (I-OnuI variant), mammalian expression (Artificial (I-OnuI from Ophiostoma …)); assay: cell_activity; HEK293T chromosomal mCherry reporter; approx 4-fold higher rate of mCherry cells after refinement
T1 chain: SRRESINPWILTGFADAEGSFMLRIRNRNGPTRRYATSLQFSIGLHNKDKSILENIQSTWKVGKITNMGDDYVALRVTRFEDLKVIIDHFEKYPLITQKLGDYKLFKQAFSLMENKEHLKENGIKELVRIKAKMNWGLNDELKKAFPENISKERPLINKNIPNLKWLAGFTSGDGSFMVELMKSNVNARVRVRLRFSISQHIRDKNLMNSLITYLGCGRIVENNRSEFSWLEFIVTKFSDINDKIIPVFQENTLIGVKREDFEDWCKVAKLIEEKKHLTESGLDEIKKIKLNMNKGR
Experimental: The activity of reprogrammed I-OnuI HEs that target exon 2 of the TIM3 gene was measured using a chromosomally integrated fluorescent reporter system (Certo et. al., 2011). Fully reprogrammed I-OnuI HEs that bind and cleave the TIM3 target sequence were cloned into mammalian expression plasmids and then individually transfected into a HEK 293T […] cell line that was reprogrammed to contain the TIM3 target sequence upstream of an out-of-frame gene encoding the fluorescent mCherry protein. Cleavage of the embedded target site by the HE and the subsequent accumulation of small insertions or deletions, caused by DNA repair via the non-homologous end joining (NHEJ) pathway, results in approximately one out of three repaired loci placing the fluorescent reporter gene back “in-frame”. mCherry fluorescence is therefore a readout of endonuclease activity at the chromosomally embedded target sequence. […] FIG. 3 (top panel).
A secondary I-OnuI variant library was generated by performing random mutagenesis on one of the reprogrammed I-OnuI HEs that targets the TIM3 target site identified in the initial reporter screen (TIM3_rd1.12, SEQ ID NO: 6). In addition, display-based flow sorting was performed under more stringent cleavage conditions in an effort to isolate variants with improved catalytic efficiency. FIG. 3 (middle panel). […]

[2] = target: T2, TIM3_rd3.22 HE (I-OnuI variant) (Artificial (I-OnuI from Ophiostoma …)); assay: flow; yeast surface display substrate titration; stated as subnanomolar affinity; conditions: tags: yeast surface display
T2 chain: T1 chain

B1: TIM3 exon 2 HE target site (dsDNA)
DNA 1: TGTCCAATAATTCACATCCCTT
DNA 2: AAGGGATGTGAATTATTGGACA
activity [1]: ~4 fold | Kd [2]: < 1 nM
